Experimental data reported in patent publication US20090156542.

Legend:
[1] = biological target: biotinylated human D-MCP-1 (mirror-image D-protein) (Homo sapiens) (UniProt P13500); assay: pulldown
[2] = biological target: biotinylated murine D-MCP-1 (mirror-image D-protein) (Mus musculus) (UniProt P10148); assay: pulldown; details: subnanomolar
[3] = biological target: human MCP-1 (CCL2, natural L-form) (Homo sapiens) (UniProt P13500); assay: SPR; details: L-RNA, 37 C, 1 mM Mg, 1 mM Ca
[4] = direct or competitive pull-down

Chain of biotinylated human D-MCP-1 (mirror-image D-protein) (Homo sapiens) (P13500 24-99): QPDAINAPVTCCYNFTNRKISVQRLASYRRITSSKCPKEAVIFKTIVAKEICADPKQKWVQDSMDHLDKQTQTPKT
Chain of biotinylated murine D-MCP-1 (mirror-image D-protein) (Mus musculus) (P10148 24-99): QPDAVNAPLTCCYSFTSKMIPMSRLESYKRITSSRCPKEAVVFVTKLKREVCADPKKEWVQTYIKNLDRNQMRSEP
Chain of human MCP-1 (CCL2, natural L-form) (Homo sapiens) (P13500 24-99): as the sequence (P13500 24-99) above

Sequence	Kd [1, 4] [nM]	Kd ([2]; stated for derivatives) [nM]	further results
ACGCACGUCCCUCACCGGUGCAAGUGAAGCCGUGGCUCUGC [D-180-D1-012]	< 1		
ACGCACGUCCCUCACCGGUGCAAGUGAAGCCGUGGCUCUGCGU [D-180-D1-002]	< 1		
AGCGUGCCAGUGUGAUGGGGGGGCGCGACCCAUUUUACACGCU [D-176-C9trc]			Kd ([1]; Type 1B): 5 nM
AGCGUGCCCGGUGUGGUAGGGGGGCGCGACCUACAUUUGCACGCU [D-176-E10trc]			Kd ([1]; Type 1A): 5 nM
CGCACGUCCCUCACCGGUGCAAGUGAAGCCGUGGCUCUGCG [D-180-D1-035]	< 1		
CUGGUUACCGAGGGGGCGUCGUUGGAGUUUGGUUGGUUGUCACCAG [D-189-G7-002]		< 1	
GAGAUGGCGACAUUGGUUGGGCAUGAGGCGAGGCCCUUUGAUGAAUCCGCGGCCAUUC [D-188-A3-001]			Kd [2]: < 1 nM
GAUGGCGACAUUGGUUGGGCAUGAGGCGAGGCCCUUUGAUGAAUCCGCGGCCAUUC [D-188-A3-004]		< 1	
GCACGUCCCUCACCGGUGCAAGUGAAGCCGUGGCUCUGCG [D-NOX-E36 (D-180-D1-036)]			Kd ([1]; 37 C, selection buffer 1 mM Mg, 1 mM Ca): 0.146 nM; Kd ([1]; room temperature, selection buffer 1 mM Mg, 1 mM Ca): 0.89 nM
GCACGUCCCUCACCGGUGCAAGUGAAGCCGUGGCUCUGCG [NOX-E36 (180-D1-036)]			Kd ([3]; PioneerF1 chip): 0.89 nM
GCACGUCCCUCACCGGUGCAAGUGAAGCCGUGGCUCUGCGU [D-180-D1-011]	< 1		
GCCGGCUACCGAGGGGGCGUCGUUGGAGUUUGGUUGGUUGUCGCCGGC [D-189-G7-008]		< 1	
GCCGGUUACCGAGGGGGCGUCGUUGGAGUUUGGUUGGUUGUCACCGGC [D-189-G7-007]		< 1	
GCGCGUACCGAGGGGGCGUCGUUGGAGUUUGGUUGGUUGUCCGCGC [D-189-G7-010]		< 1	
GCUGGUUACCGAGGGGGCGUCGUUGGAGUUUGGUUGGUUGUCACCAGC [D-189-G7-001]			Kd [2]: < 1 nM
GGCGACAUUGGUUGGGCAUGAGGCGAGGCCCUUUGAUGAAUCCGCGGCCAUU [D-188-A3-006]		< 1	
GGCGACAUUGGUUGGGCAUGAGGCGAGGCCCUUUGAUGAAUCCGCGGCCAUUC [D-188-A3-005]		< 1	
GGGCCUACCGAGGGGGCGUCGUUGGAGUUUGGUUGGUUGUCGGCCC [D-189-G7-012]		< 1	
GGGCGUAGUGAGAAACUACCAACGACUGGCUAGAGCCGGCCC [181-A2-018]			Kd ([3]; CM4 chip): 0.37 nM
GUGCGCGUAGUUAAAAACUACCAGCGACUGGCUAGAGCCGGCGCAC [D-178-D5-030]	0.5		
GUGCUGCGUAGUGAGAAACUACCAACGACUGGCUAGAGCCGGCAGCAC [D-181-A2]	0.1		
GUGCUGCGUAGUUAAAAACUACCAGCGACUGGCUAGAGCCGGCAGCAC [D-178-D5]	0.5		
UGGUUACCGAGGGGGCGUCGUUGGAGUUUGGUUGGUUGUCACCA [D-189-G7-003]		< 1	
